Assay results reported in IntAct's records for PubMed 31515488.

B1: Tuftelin-interacting protein 11 (Homo sapiens), Q9UBB9 (parent)
chain: MSLSHLYRDGEGRIDDDDDERENFEITDWDLQNEFNPNRQRHWQTKEEATYGVWAERDSDDERPSFGGKRARDYSAPVNFISAGLKKGAAEEAELEDSDDEEKPVKQDDFPKDFGPRKLKTGGNFKPSQKGFAGGTKSFMDFGSWERHTKGIGQKLLQKMGYVPGRGLGKNAQGIINPIEAKQRKGKGAVGAYGSERTTQSMQDFPVVDSEEEAEEEFQKELSQWRKDPSGSKKKPKYSYKTVEELKAKGRISKKLTAPQKELSQVKVIDMTGREQKVYYSYSQISHKHNVPDDGLPLQSQQLPQSGKEAKAPGFALPELEHNLQLLIDLTEQEIIQNDRQLQYERDMVVNLFHELEKMTEVLDHEERVISNLSKVLEMVEECERRMQPDCSNPLTLDECARIFETLQDKYYEEYRMSDRVDLAVAIVYPLMKEYFKEWDPLKDCTYGTEIISKWKSLLENDQLLSHGGQDLSADAFHRLIWEVWMPFVRNIVTQWQPRNCDPMVDFLDSWVHIIPVWILDNILDQLIFPKLQKEVENWNPLTDTVPIHSWIHPWLPLMQARLEPLYSPIRSKLSSALQKWHPSDSSAKLILQPWKDVFTPGSWEAFMVKNIVPKLGMCLGELVINPHQQHMDAFYWVIDWEGMISVSSLVGLLEKHFFPKWLQVLCSWLSNSPNYEEITKWYLGWKSMFSDQVLAHPSVKDKFNEALDIMNRAVSSNVGAYMQPGARENIAYLTHTERRKDFQYEAMQERREAENMAQRGIGVAASSVPMNFKDLIETKAEEHNIVFMPVIGKRHEGKQLYTFGRIVIYIDRGVVFVQGEKTWVPTSLQSLIDMAK
partner: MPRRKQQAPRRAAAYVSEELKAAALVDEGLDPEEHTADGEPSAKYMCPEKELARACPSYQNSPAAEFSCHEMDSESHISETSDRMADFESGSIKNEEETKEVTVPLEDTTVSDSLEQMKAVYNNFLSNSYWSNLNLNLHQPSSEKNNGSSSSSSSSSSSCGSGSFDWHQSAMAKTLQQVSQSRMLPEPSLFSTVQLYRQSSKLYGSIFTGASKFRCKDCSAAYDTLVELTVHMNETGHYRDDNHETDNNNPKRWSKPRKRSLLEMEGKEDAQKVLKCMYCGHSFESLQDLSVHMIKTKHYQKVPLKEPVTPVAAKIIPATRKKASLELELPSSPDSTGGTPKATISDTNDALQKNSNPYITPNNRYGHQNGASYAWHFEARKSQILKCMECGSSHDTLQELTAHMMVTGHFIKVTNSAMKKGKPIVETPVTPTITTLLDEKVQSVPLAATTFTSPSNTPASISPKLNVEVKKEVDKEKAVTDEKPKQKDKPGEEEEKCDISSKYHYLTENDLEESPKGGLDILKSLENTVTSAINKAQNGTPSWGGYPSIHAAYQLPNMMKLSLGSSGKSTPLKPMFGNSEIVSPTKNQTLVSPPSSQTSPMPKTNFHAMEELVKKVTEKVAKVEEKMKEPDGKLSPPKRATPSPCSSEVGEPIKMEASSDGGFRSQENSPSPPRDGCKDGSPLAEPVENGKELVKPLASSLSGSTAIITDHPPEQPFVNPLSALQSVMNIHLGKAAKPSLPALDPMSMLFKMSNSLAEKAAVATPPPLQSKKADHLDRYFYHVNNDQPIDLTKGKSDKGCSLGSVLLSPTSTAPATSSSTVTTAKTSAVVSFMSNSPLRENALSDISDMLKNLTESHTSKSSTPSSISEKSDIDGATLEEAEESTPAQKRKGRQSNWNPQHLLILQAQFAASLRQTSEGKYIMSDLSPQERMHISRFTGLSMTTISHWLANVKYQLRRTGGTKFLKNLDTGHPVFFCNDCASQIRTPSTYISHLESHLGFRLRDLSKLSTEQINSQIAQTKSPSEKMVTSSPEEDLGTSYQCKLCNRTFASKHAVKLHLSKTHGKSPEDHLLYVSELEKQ
B2: Dynein axonemal assembly factor 19 (Homo sapiens), Q8IW40 (parent)
chain: MERNDIINFKALEKELQAALTADEKYKRENAAKLRAVEQRVASYEEFRGIVLASHLKPLERKDKMGGKRTVPWNCHTIQGRTFQDVATEISPEKAPLQPETSADFYRDWRRHLPSGPERYQALLQLGGPRLGCLFQTDVGFGLLGELLVALADHVGPADRAAVLGILCSLASTGRFTLNLSLLSRAERESCKGLFQKLQAMGNPRSVKEGLSWEEQGLEEQSGGLQEEERLLQELLELYQVD
B3: Vesicle transport through interaction with t-SNAREs homolog 1B (Homo sapiens), Q9UEU0 (parent)
chain: MASSAASSEHFEKLHEIFRGLHEDLQGVPERLLGTAGTEEKKKLIRDFDEKQQEANETLAEMEEELRYAPLSFRNPMMSKLRNYRKDLAKLHREVRSTPLTATPGGRGDMKYGIYAVENEHMNRLQSQRAMLLQGTESLNRATQSIERSHRIATETDQIGSEIIEELGEQRDQLERTKSRLVNTSENLSKSRKILRSMSRKVTTNKLLLSIIILLELAILGGLVYYKFFRSH
partner: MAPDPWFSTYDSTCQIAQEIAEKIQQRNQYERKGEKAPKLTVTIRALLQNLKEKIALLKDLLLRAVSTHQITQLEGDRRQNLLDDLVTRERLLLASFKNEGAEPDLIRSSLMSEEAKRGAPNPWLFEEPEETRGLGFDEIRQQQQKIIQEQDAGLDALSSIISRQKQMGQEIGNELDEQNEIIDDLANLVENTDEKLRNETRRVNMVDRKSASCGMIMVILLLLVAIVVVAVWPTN

Variants of: B1
Settings: with tsh3_human TSHZ3, Q63HK5

effect of a mutation on the interaction | Variant
with no effect | S688L

Variants of: B2
Settings: with vac14_human VAC14, Q08AM6
Sequence of vac14_human VAC14, Q08AM6 (Q08AM6 whole entry): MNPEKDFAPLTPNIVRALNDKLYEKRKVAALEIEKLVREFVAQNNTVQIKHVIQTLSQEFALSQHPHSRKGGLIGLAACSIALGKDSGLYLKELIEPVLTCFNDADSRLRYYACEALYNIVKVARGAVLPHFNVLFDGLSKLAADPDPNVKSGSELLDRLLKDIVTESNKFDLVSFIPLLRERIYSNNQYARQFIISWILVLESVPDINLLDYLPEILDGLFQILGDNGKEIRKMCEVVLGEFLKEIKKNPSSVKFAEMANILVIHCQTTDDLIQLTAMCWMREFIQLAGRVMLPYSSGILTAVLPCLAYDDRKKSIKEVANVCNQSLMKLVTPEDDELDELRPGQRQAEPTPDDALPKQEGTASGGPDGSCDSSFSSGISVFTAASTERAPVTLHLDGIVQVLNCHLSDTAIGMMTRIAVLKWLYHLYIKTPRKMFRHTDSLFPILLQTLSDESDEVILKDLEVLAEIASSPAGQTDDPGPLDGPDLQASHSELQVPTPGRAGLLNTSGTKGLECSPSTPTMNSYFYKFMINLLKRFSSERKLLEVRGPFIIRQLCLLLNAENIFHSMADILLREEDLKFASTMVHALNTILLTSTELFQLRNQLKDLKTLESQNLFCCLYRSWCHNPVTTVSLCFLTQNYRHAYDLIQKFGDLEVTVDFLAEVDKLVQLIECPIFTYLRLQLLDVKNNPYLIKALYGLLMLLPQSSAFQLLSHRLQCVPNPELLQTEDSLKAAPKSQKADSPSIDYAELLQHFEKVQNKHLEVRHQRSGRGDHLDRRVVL

effect of a mutation on the interaction | Variant
with no effect | MERNDIINFKALEKELQAALTADEKYKRENAAKLRAVEQRVASYEEFRGIVLASHLKPLERKDKMGGKRTVPWNCHTIQGRTFQDVATEISPEKAPLQPETSADFYRDWRRHLPSGPERYQALLQLGGPRLGCLFQTDVGFGLLGELLVALADPVGPADRAAVLGILCSLASTGRFTLNLSLLSRAERESCKGLFQKLQAMGNPRSVKEGLSWEEQGLEEQSGGLQEEERLLQELLELYQVD [H154P]
with no effect | MERNDIINFKALEKELQAALTADEKYKRENAAKLRAVEQRVASYEEFRGIVLASHLKPLERKDKMGGKRTVPWNCHTIQGRTFQDVATEISPEKAPLQPETSADFYRDWRRNLPSGPERYQALLQLGGPRLGCLFQTDVGFGLLGELLVALADHVGPADRAAVLGILCSLASTGRFTLNLSLLSRAERESCKGLFQKLQAMGNPRSVKEGLSWEEQGLEEQSGGLQEEERLLQELLELYQVD [H112N]

Variants of: B2
Settings: with hgs_human HGS

effect of a mutation on the interaction | Variant
with no effect | MERNDIINFKALEKELQAALTADEKYRRENAAKLRAVEQRVASYEEFRGIVLASHLKPLERKDKMGGKRTVPWNCHTIQGRTFQDVATEISPEKAPLQPETSADFYRDWRRHLPSGPERYQALLQLGGPRLGCLFQTDVGFGLLGELLVALADHVGPADRAAVLGILCSLASTGRFTLNLSLLSRAERESCKGLFQKLQAMGNPRSVKEGLSWEEQGLEEQSGGLQEEERLLQELLELYQVD [K27R]

Variants of: B3
Settings: with stx8_human STX8, Q9UNK0

effect of a mutation on the interaction | Variant
with no effect | MASSAASSEHFEKLHEIFRGLHEDLQGVPERLLGTAGTEEKKKLIRDFDEKQQEANETLAEMEEELRYAPLSFRNPMMSKLRNYRKDLAKLHREVRSTPLTATPGGRGDMKYGIYAVENEHMNQLQSQRAMLLQGTESLNRATQSIERSHRIATETDQIGSEIIEELGEQRDQLERTKSRLVNTSENLSKSRKILRSMSRKVTTNKLLLSIIILLELAILGGLVYYKFFRSH [R124Q]
with no effect | MASSAASSEHFEKLHEIFRGLHEDLQGVPERLLGTAGTEEKKKLIRDFDEKQQEANETLAEMEEELRYAPLSFRNPMMSKLRNYRKDLAKLHREVRSTPLTATPGGRGDMKYGIYAVENEHMNRLQSQRAMLLQGTESLNRATQSIERSHRIATETDQIGSEIIEELGEQRDQLEHTKSRLVNTSENLSKSRKILRSMSRKVTTNKLLLSIIILLELAILGGLVYYKFFRSH [R176H]
